# Assay results published in patent US20220184221A1 (published 2022).
# Where no end group is shown, it is not given here.
# Legend:
# Assay in all cases: inhibition of recombinant KDM5 demethylase activity (H3K4me3 peptide); legend calls it IC50
# [1] = molecular target: T1, recombinant KDM5C (UniProt P41229 1-765)
# T1 chain: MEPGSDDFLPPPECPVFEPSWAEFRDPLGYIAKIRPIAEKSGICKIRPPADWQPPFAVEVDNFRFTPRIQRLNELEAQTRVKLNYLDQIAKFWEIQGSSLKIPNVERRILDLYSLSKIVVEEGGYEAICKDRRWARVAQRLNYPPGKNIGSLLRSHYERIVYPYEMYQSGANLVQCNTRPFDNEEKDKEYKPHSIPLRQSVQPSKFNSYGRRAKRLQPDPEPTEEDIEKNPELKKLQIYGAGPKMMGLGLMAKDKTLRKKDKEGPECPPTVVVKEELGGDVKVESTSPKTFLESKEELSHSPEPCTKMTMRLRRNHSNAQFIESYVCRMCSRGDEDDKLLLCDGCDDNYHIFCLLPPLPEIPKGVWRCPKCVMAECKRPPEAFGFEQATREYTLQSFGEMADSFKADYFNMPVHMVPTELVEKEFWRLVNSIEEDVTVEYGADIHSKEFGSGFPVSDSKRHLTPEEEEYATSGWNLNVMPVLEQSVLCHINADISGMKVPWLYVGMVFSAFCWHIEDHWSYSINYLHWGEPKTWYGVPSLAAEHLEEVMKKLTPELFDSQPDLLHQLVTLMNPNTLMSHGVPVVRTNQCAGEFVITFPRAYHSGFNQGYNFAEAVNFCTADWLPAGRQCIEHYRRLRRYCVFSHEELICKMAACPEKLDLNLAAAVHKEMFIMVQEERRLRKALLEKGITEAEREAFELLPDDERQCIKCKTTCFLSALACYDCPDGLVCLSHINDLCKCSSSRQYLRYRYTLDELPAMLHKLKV
# [2] = molecular target: KDM5A
# [3] = molecular target: KDM5B
binder,measurement,setting,value
"TEDSKTHHH (also: fluorescein label in FP assay, end not given here) [EP4]",EC50,[1],0.97 nM
same,EC50,[2],422 nM
same,EC50,[3],377 nM
